In US20180267027A1, “FLUORESCENT BIOSENSOR FOR […] ASSAY” (The Regents of the University of California, priority 2015, published 2018):

Assays:
[1] = molecular target: T1, protein lysine MTase SET7/9 (Homo sapiens, UniProt Q8WTS6); experiment: Protein MTase SET7/9 activity assay with SAH biosensor; type: biochemical
T1 construct: purchased New England Biolabs Inc (Ipswich, Mass.)
T1 sequence (Q8WTS6 1-366): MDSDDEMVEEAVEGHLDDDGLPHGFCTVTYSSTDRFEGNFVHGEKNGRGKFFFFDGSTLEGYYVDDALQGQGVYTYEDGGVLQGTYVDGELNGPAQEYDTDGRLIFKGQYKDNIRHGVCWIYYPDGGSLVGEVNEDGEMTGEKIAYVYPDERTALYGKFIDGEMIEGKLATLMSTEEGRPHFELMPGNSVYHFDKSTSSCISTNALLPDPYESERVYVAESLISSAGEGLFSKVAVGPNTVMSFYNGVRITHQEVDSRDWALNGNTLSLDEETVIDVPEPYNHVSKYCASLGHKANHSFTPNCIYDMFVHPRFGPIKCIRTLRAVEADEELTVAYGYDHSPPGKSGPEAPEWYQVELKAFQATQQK
Description: To initiate the enzyme reaction, 5 μL of H3 peptide substrate (N′-[…]-LAGGKKC-C′) (SEQ ID NO:132) was added to 5 μL of 2×enzyme reaction solution containing SET7/9, SAM, and NEB HMT buffer. Generally, final concentrations are 50 μM H3 peptide, 0.1 U/μL SET7/9, 25 μM SAM, and lx NEB HMT buffer (50 mM Tris, pH 9.0, 5 mM MgCl2, and 4 mM DTT). The reaction solution was incubated at 37° C. for 2 hours to allow the enzyme reaction to proceed.
To initiate the fluorescent biosensor reaction, 10 μL of the enzyme reaction was added to 90 μL of biosensor reaction solution containing renatured RNA, DFHBI, and buffer. […] For the SAH control, SAH was added to a final concentration of 0.5 μM in place of the enzyme reaction. In vitro fluorescence assays were conducted as described above.

SET7/9 = molecular target: T2, SET7/9 (Homo sapiens, UniProt Q8WTS6); experiment: High-throughput screening (HTS) assay of SET7/9 activity and inhibition, Z′ score; type: biochemical; conditions: 384-well plate, 16 replicates
T2 construct: purchased New England Biolabs Inc (Ipswich, Mass.)
T2 sequence (Q8WTS6 1-366): T1 sequence (Q8WTS6 1-366)
Description: For HTS experiments, samples were dispensed into a Grenier 781077 384-well flat bottom black plate using an Eppendorf Repeater […] pipetter to dispense reaction components. Z' scores were calculated from 16 well replicates in the 384-well plate. For the HTS SET7/9 activity assay, 3 μL of H3 peptide or water was added to 9 μL of reaction solution containing SET7/9 MTase, SAM, and NEB HMT Reaction Buffer in each well. Final concentrations are: 0.25 U/10 μL SET7/9, 25 μM SAM, 50 μM H3 peptide and 1×NEB HMT Reaction Buffer (50 mM Tris, pH 9.0, 5 mM MgCl2, and 4 mM DTT). After 30 min incubation at 37° C., to initiate the fluorescent biosensor reaction, 18 μL of biosensor reaction solution containing renatured RNA, DFHBI, and buffer was added to each well. […] In vitro fluorescence assays were conducted as described above. For the HTS SET7/9 inhibition assay, 4.5 μL of sinefungin or water was added to 8 μL of reaction solution containing SET7/9 MTase, and NEB HMT Reaction Buffer in each well. After 15 minutes incubation at 37° C., methylation reaction was initiated by adding 2.5 μL solution containing both SAM and H3 peptide. Final concentrations are: 0.25 U/10 μL SET7/9, 25 μM SAM, 50 μM H3 peptide, 300 μM sinefungin and 1×NEB HMT Reaction Buffer (50 mM Tris, pH 9.0, 5 mM MgCl2, and 4 mM DTT). After 30 min incubation at 37° C., to initiate the fluorescent biosensor reaction, 15 μL of biosensor reaction solution containing renatured RNA, DFHBI, and buffer was added to each well. […] In vitro fluorescence assays were conducted as described above.

[2] = In vitro fluorescence assays of SAH biosensors (turn-on, ligand selectivity); type: biochemical
Description: Other conditions, including temperature, concentrations of MgCl2, DFHBI, ligand or RNA, were varied in different experiments and are indicated in the figures. The RNA was renatured in buffer at 70° C. for 3 min and cooled to ambient temperature for 5 min prior to addition to the reaction solution. DFHBI was added to a solution containing buffer and ligand, and then RNA was added at the end before fluorescence measurement. Binding reactions were performed in 100 μL volumes and were incubated at the indicated temperature in a Corning Costar 3915 96-well black plate until equilibrium was reached, which in some cases takes 30 to 60 minutes. The fluorescence emission was measured using a Molecular Devices SpectraMax Paradigm Multi-Mode detection platform plate reader (Sunnyvale, Calif.) with the following instrument parameters: 448 nm excitation, 506 nm emission.

[3] = tested on: E. coli BL21* wild-type and ΔMTAN cells; experiment: Live cell detection of SAH accumulation, wild-type versus MTAN knockout, flow cytometry; type: cell-based
Description: A Targetron® Gene Knockout System (Sigma-Aldrich) was used to knock out the MTAN gene from E. coli BL21*, following manufacturer protocols.
Preparation of cell samples for flow cytometry was carried out by inoculating 2 mL of auto-induction media/Carb (F. Studier, Protein Expression and Purification 2005, 41, 207-234) with E. coli BL21* cells from colonies grown on an LB/Carb culture plate, containing pET31b plasmids encoding RNA aptamers. […] Cells were then grown aerobically overnight to saturation (0D600 varied from 5 to 10) and diluted to OD600˜0.01-0.05 in M9 minimal media (pH ˜6.0) with 100 μM DFHBI-1T. Cellular fluorescence was measured for 30,000 cells using a Life Technologies Attune N×T Acoustic Focusing Cytometer.

E. coli cells = experiment: RNA stability in E. coli, cpSpinach2 fluorescence in M9 minimal media; type: cell-based; conditions: M9 minimal media without inducers, monitored for 4 h
Description: Fluorescence of cpSpinach2-expressing E. coli cells grown 16 hrs in auto-induction media, then pelleted and re-suspended in M9 minimal media without RNA transcription inducers.
RNA stability in E. coli: For the time-course experiment shown in FIG. 4D, E. coli cells from overnight culture (16 h post-inoculation and induction) were pelleted and re-suspended in M9 minimal media without transcriptional inducers (lactose). To analyze the stability of RNA levels under these conditions, E. coli cells expressing cpSpinach2 were processed using the same procedures and fluorescence was monitored for 4 h. Fluorescence readings remained stable for up to 3 h in M9 minimal media. Therefore, we expect that the related biosensor levels would be stable in the same time-frame, so the fluorescence change shown in FIG. 4D reflects the dynamic change in SAH levels.

E. coli BL21* cells = experiment: In vivo fluorescence of RNA aptamers by flow cytometry; type: cell-based; conditions: 100 μM DFHBI
Description: To compare the fluorescence of Spinach2 and cpSpinach2 in live cells, pET31b plasmids encoding the RNA aptamers in a tRNA scaffold were transformed into E. coli BL21* cells. Following IPTG induction of transcription, cells were incubated with DFHBI and fluorescence was quantitated by flow cytometry. The mean cellular fluorescence was measured as a function of increasing DFHBI concentration in the media, in order to determine the optimal conditions for aptamer fluorescence. Unexpectedly, full saturation of fluorescence was not observed, even when E. coli cells were incubated in media containing up to 800 μM DFHBI (FIG. 5). However, the non-specific fluorescence signal increased when DFHBI concentration exceeded 100 μM. Thus, to balance higher fluorescence activation and lower non-specific background, a concentration of 100 μM was adopted for further experiments. Under these conditions, cellular fluorescence activation for Spinach2 and cpSpinach2 was on average 34 and 22-fold over background, respectively (FIG. 6). Thus, cpSpinach2 is a functional alternative to Spinach2. Although it currently performs slightly poorer in terms of fluorescence activation in live cells, improvements are likely possible through directed mutagenesis for higher thermal stability, improved folding efficiency and less Mg^2+ dependency. […]

B1: Aeh1-4: SAH biosensor, SEQ ID NO: 44 (nucleic acid)
chain: CGCCCCGAGGAGCGCTGCAACAGGTTGTTGAGTAGAGTGTGAGCTCCGTAACTAGTTACATCGCAAGATGTAACTGAATGAAATGGTGAAGGACGGGTCCACCTGCCAGGCTCGGGGATGGCGCCCCATCGTTCCAACGGCGCTCAGCGAAA
fluorescence response to SET7/9 activity [1]: displayed a fluorescence response to SET7/9 activity
Z′ score, substrate screen (SET7/9): 0.74
Z′ score, inhibitor screen (SET7/9; 300 μM sinefungin): 0.44
fluorescence response to SAH at low magnesium ([2]; 3 mM magnesium): decreased fluorescence turn-on
fluorescence turn-on ([2]; 37° C., 10 mM Mg^2+): around 5 fold
change of fluorescence turn-on with increasing magnesium ([2]; magnesium from 1 to 20 mM): marked improvement in fluorescence turn-on

B2: cpSpinach2: circular permutant of the Spinach2 aptamer, SEQ ID NO: 93 (nucleic acid)
chain: GCAGCCTACTTGTTGAGTAGAGTGTGAGCTCCGTAACTAGTTACATCGCAAGATGTAACTGAATGAAATGGTGAAGGACGGGTCCAGTAGGCTGC
modifications: expressed or natural sequence
fold change in fluorescence between wild-type and MTAN knockout strain 2 ([3]; E. coli BL21* MTAN knockout strain 2): 1.4 ×
fluorescence signal in ΔMTAN versus wild-type cells ([3]; E. coli BL21*, flow cytometry): no significant difference in signal
time fluorescence readings remained stable (E. coli cells): up to 3 h
cellular fluorescence activation over background (E. coli BL21* cells): 22 fold
